From article PMC5446404, “Fortilin binds IRE1α and prevents ER stress from signaling apoptotic cell death” (Nature Communications, 2017) come the findings set out here.

Assay [1] deals with GST-IRE1α-C (aa 468-977) (human, UniProt O75460 468-977). Put plainly: cell-based or functional assay.
Assay [2] addresses T1, bovine serum albumin (bovine, UniProt P02769 25-607).
T1 construct: serum albumin, bovine; negative control of the biolayer interferometry; also called BSA; source: bought: Sigma-Aldrich
Put plainly: BLI; BLItz (ForteBio); biotinylated fortilin immobilised on streptavidin-coated biosensors (25 μg/mL, 600 s), buffer exchange in PBS; analyte at various concentrations for 180 s, dissociation in PBS for 300 s; three independent experiments. Particulars: both partners purified. In general terms: In BLI a coated tip is dipped into the sample, and binding shifts an interference pattern.

Sequence of GST-IRE1α-C (aa 468-977) (O75460 468-977): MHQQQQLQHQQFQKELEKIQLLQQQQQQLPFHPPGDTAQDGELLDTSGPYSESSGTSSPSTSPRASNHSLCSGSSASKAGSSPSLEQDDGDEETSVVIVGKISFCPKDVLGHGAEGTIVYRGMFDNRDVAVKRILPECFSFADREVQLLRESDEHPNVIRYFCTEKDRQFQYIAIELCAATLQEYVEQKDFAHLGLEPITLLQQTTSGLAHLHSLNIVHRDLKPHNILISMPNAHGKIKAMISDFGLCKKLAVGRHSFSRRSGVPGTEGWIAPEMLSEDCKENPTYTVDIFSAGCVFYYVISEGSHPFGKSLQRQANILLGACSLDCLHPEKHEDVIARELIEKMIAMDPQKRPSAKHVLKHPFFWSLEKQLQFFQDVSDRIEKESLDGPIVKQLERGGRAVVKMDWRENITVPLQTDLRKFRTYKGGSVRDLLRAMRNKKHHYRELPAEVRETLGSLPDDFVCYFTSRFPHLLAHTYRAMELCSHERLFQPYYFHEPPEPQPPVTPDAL
T1 sequence (P02769 25-607): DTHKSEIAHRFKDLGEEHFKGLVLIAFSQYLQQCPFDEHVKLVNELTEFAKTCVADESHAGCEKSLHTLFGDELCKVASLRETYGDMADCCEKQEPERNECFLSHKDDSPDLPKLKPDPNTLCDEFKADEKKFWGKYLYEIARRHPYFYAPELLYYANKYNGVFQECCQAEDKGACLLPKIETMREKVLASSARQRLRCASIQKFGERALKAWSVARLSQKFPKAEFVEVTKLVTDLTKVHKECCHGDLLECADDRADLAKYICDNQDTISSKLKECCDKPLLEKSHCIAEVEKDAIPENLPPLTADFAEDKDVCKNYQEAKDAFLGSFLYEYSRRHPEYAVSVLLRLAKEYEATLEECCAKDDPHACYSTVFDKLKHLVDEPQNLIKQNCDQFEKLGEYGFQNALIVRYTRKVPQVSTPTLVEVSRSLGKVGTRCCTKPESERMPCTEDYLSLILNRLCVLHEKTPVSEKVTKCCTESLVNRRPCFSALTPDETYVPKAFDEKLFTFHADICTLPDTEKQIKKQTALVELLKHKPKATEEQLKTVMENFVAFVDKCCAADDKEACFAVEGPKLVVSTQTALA

B1: recombinant human fortilin (Strep-tag II), biotinylated (natural protein, UniProt P13693 1-172, looked up)
chain: MIIYRDLISHDEMFSDIYKIREIADGLCLEVEGKMVSRTEGNIDDSLIGGNASAEGPEGEGTESTVITGVDIVMNHHLQETSFTKEAYKKYIKDYMKSIKGKLEEQRPERVKPFMTGAAEQIKHILANFKNYQFFIGENMNPDGMVALLDYREDGVTPYMIFFKDGLEMEKC
modifications: biotinylated (sites not given)
notes: fortilin (translationally controlled tumor protein), human, described as a 172-amino-acid polypeptide; cDNA encoding human fortilin cloned into pESG-IBA5; Biotinylated for BLI; also called translationally controlled tumor protein; Strep-tagged fortilin; source: 293T cells stably expressing it, purified (Strep-Tactin-Superflow resin)
A word on the Kd: it is the concentration at which binding is half-saturated. Read a low Kd as a tighter complex. With B1, the “in vitro IRE1α kinase activity: incorporation of γ-33P from [γ-33P]ATP into myelin basic protein; IC50 of fortilin” value in assay [1] came out at 0.77 µM. In assay [2], the Kd was 1050 µM.
